The source of these data is patent US20170335016A1 (Kyowa Kirin, published 2017).

Sequences and labels used below:
B1: DVD341VL34-341 (bispecific antibody, human IgG2, kappa)
heavy: EVQLVESGGGLVKPGGSLRLSCGGSGFTFNNAWMNWVRQAPGKGLEWVGRIKGKTDGGTADYAAPVKGRFTISRDYSKNTLYLQMNSLTTEDTAVYYCNTDLPYYYGSGRYSGMDVWGQGTTVTVSSASTKGPQVQLQQSGPGLVKPSQTLSLTCAISGDSVSSNSATWNWIRQSPSRDLEWLGRTYYRSKWYRDYVGSVKSRIIINPDTSNNQFSLQLNSVTPEDTAIYYCTRAQWLGGDYPYYYSMDVWGQGTTVTVSSASTKGPSVFPLAPCSRSTSESTAALGCLVKDYFPEPVTVSWNSGALTSGVHTFPAVLQSSGLYSLSSVVTVPSSNFGTQTYTCNVDHKPSNTKVDKTVERKCCVECPPCPAPPVAGPSVFLFPPKPKDTLMISRTPEVTCVVVDVSHEDPEVQFNWYVDGVEVHNAKTKPREEQFNSTFRVVSVLTVVHQDWLNGKEYKCKVSNKGLPASIEKTISKTKGQPREPQVYTLPPSREEMTKNQVSLTCLVKGFYPSDIAVEWESNGQPENNYKTTPPMLDSDGSFFLYSKLTVDKSRWQQGNVFSCSVMHEALHNHYTQKSLSLSPGK
light: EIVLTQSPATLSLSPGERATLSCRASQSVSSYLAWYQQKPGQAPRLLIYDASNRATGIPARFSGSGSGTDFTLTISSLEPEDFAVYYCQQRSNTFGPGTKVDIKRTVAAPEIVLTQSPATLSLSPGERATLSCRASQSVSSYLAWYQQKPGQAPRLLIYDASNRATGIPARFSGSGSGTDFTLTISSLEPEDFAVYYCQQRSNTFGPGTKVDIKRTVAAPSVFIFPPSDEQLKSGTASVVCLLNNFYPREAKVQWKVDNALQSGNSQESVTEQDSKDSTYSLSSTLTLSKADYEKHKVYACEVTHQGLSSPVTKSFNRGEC
notes: Comparison molecule with a short linker, after Wu et al. Entries probably still carry signal peptides; Tested as culture supernatant
B2: DVD341VL36-341 (bispecific antibody, human IgG2, kappa)
heavy: EVQLVESGGGLVKPGGSLRLSCGGSGFTFNNAWMNWVRQAPGKGLEWVGRIKGKTDGGTADYAAPVKGRFTISRDYSKNTLYLQMNSLKTEDTGVYYCTTYLPYYYGSERWSGMDVWGQGTTVTVSSASTKGPQVQLQQSGPGLVKPSQTLSLTCAISGDSVSSNSATWNWIRQSPSRDLEWLGRTYYRSKWYRDYVGSVKSRIIINPDTSNNQFSLQLNSVTPEDTAIYYCTRAQWLGGDYPYYYSMDVWGQGTTVTVSSASTKGPSVFPLAPCSRSTSESTAALGCLVKDYFPEPVTVSWNSGALTSGVHTFPAVLQSSGLYSLSSVVTVPSSNFGTQTYTCNVDHKPSNTKVDKTVERKCCVECPPCPAPPVAGPSVFLFPPKPKDTLMISRTPEVTCVVVDVSHEDPEVQFNWYVDGVEVHNAKTKPREEQFNSTFRVVSVLTVVHQDWLNGKEYKCKVSNKGLPASIEKTISKTKGQPREPQVYTLPPSREEMTKNQVSLTCLVKGFYPSDIAVEWESNGQPENNYKTTPPMLDSDGSFFLYSKLTVDKSRWQQGNVFSCSVMHEALHNHYTQKSLSLSPGK
light: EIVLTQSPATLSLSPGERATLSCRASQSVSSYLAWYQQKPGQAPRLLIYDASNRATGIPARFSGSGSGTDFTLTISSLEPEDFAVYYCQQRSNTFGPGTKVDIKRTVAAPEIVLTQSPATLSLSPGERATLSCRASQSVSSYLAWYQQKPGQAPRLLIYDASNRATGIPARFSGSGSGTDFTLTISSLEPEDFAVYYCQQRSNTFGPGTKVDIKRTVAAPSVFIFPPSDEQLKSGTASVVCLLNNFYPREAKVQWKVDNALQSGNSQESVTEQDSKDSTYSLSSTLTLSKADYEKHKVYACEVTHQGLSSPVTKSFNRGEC
notes: as for B1
B3: multivalent antibody 341VL34-CH1-341 (bispecific antibody)
heavy: EVQLVESGGGLVKPGGSLRLSCGGSGFTFNNAWMNWVRQAPGKGLEWVGRIKGKTDGGTADYAAPVKGRFTISRDYSKNTLYLQMNSLTTEDTAVYYCNTDLPYYYGSGRYSGMDVWGQGTTVTVSSASTKGPSVFPLAPCSRSTSESTAALGCLVKDYFPEPVTVSWNSGALTSGVHTFPAVLQSSGLYSLSSVVTVPSSNFGTQTYTCNVDHKPSNTKVDKTVGSQVQLQQSGPGLVKPSQTLSLTCAISGDSVSSNSATWNWIRQSPSRDLEWLGRTYYRSKWYRDYVGSVKSRIIINPDTSNNQFSLQLNSVTPEDTAIYYCTRAQWLGGDYPYYYSMDVWGQGTTVTVSSASTKGPSVFPLAPCSRSTSESTAALGCLVKDYFPEPVTVSWNSGALTSGVHTFPAVLQSSGLYSLSSVVTVPSSNFGTQTYTCNVDHKPSNTKVDKTVERKCCVECPPCPAPPVAGPSVFLFPPKPKDTLMISRTPEVTCVVVDVSHEDPEVQFNWYVDGVEVHNAKTKPREEQFNSTFRVVSVLTVVHQDWLNGKEYKCKVSNKGLPASIEKTISKTKGQPREPQVYTLPPSREEMTKNQVSLTCLVKGFYPSDIAVEWESNGQPENNYKTTPPMLDSDGSFFLYSKLTVDKSRWQQGNVFSCSVMHEALHNHYTQKSLSLSPGK
light: EIVLTQSPATLSLSPGERATLSCRASQSVSSYLAWYQQKPGQAPRLLIYDASNRATGIPARFSGSGSGTDFTLTISSLEPEDFAVYYCQQRSNTFGPGTKVDIK
notes: Anti-CD28 site N-terminal, anti-CD40 site C-terminal; Tested as culture supernatant; not shown: human immunoglobulin kappa light chain constant region
B4: anti-CD40 antibody 341-1-19 (antibody, IgG2, V domains shown)
VH: QVQLQQSGPGLVKPSQTLSLTCAISGDSVSSNSATWNWIRQSPSRDLEWLGRTYYRSKWYRDYVGSVKSRIIINPDTSNNQFSLQLNSVTPEDTAIYYCTRAQWLGGDYPYYYSMDVWGQGTTVTVSS
VL: EIVLTQSPATLSLSPGERATLSCRASQSVSSYLAWYQQKPGQAPRLLIYDASNRATGIPARFSGSGSGTDFTLTISSLEPEDFAVYYCQQRSNTFGPGTKVDIK
notes: IgG2; Tested as culture supernatant; also called antibody produced by hybridoma KM341-1-19; not shown: human immunoglobulin kappa light chain constant region; kappa inferred from the anti-human κ detecti
B5: multivalent antibody 341-CH1-341VL34 (bispecific antibody)
heavy: QVQLQQSGPGLVKPSQTLSLTCAISGDSVSSNSATWNWIRQSPSRDLEWLGRTYYRSKWYRDYVGSVKSRIIINPDTSNNQFSLQLNSVTPEDTAIYYCTRAQWLGGDYPYYYSMDVWGQGTTVTVSSASTKGPSVFPLAPCSRSTSESTAALGCLVKDYFPEPVTVSWNSGALTSGVHTFPAVLQSSGLYSLSSVVTVPSSNFGTQTYTCNVDHKPSNTKVDKTVGSEVQLVESGGGLVKPGGSLRLSCGGSGFTFNNAWMNWVRQAPGKGLEWVGRIKGKTDGGTADYAAPVKGRFTISRDYSKNTLYLQMNSLTTEDTAVYYCNTDLPYYYGSGRYSGMDVWGQGTTVTVSSASTKGPSVFPLAPCSRSTSESTAALGCLVKDYFPEPVTVSWNSGALTSGVHTFPAVLQSSGLYSLSSVVTVPSSNFGTQTYTCNVDHKPSNTKVDKTVERKCCVECPPCPAPPVAGPSVFLFPPKPKDTLMISRTPEVTCVVVDVSHEDPEVQFNWYVDGVEVHNAKTKPREEQFNSTFRVVSVLTVVHQDWLNGKEYKCKVSNKGLPASIEKTISKTKGQPREPQVYTLPPSREEMTKNQVSLTCLVKGFYPSDIAVEWESNGQPENNYKTTPPMLDSDGSFFLYSKLTVDKSRWQQGNVFSCSVMHEALHNHYTQKSLSLSPGK
light: EIVLTQSPATLSLSPGERATLSCRASQSVSSYLAWYQQKPGQAPRLLIYDASNRATGIPARFSGSGSGTDFTLTISSLEPEDFAVYYCQQRSNTFGPGTKVDIK
notes: Anti-CD40 site N-terminal, anti-CD28 site C-terminal; Tested as culture supernatant; not shown: human immunoglobulin kappa light chain constant region
B6: multivalent antibody 341VL36-CH1-341 (bispecific antibody)
heavy: EVQLVESGGGLVKPGGSLRLSCGGSGFTFNNAWMNWVRQAPGKGLEWVGRIKGKTDGGTADYAAPVKGRFTISRDYSKNTLYLQMNSLKTEDTGVYYCTTYLPYYYGSERWSGMDVWGQGTTVTVSSASTKGPSVFPLAPCSRSTSESTAALGCLVKDYFPEPVTVSWNSGALTSGVHTFPAVLQSSGLYSLSSVVTVPSSNFGTQTYTCNVDHKPSNTKVDKTVGSQVQLQQSGPGLVKPSQTLSLTCAISGDSVSSNSATWNWIRQSPSRDLEWLGRTYYRSKWYRDYVGSVKSRIIINPDTSNNQFSLQLNSVTPEDTAIYYCTRAQWLGGDYPYYYSMDVWGQGTTVTVSSASTKGPSVFPLAPCSRSTSESTAALGCLVKDYFPEPVTVSWNSGALTSGVHTFPAVLQSSGLYSLSSVVTVPSSNFGTQTYTCNVDHKPSNTKVDKTVERKCCVECPPCPAPPVAGPSVFLFPPKPKDTLMISRTPEVTCVVVDVSHEDPEVQFNWYVDGVEVHNAKTKPREEQFNSTFRVVSVLTVVHQDWLNGKEYKCKVSNKGLPASIEKTISKTKGQPREPQVYTLPPSREEMTKNQVSLTCLVKGFYPSDIAVEWESNGQPENNYKTTPPMLDSDGSFFLYSKLTVDKSRWQQGNVFSCSVMHEALHNHYTQKSLSLSPGK
light: EIVLTQSPATLSLSPGERATLSCRASQSVSSYLAWYQQKPGQAPRLLIYDASNRATGIPARFSGSGSGTDFTLTISSLEPEDFAVYYCQQRSNTFGPGTKVDIK
notes: Anti-CD28 site N-terminal, anti-CD40 site C-terminal; Entry probably still carries the signal peptide; Tested as culture supernatant; not shown: human immunoglobulin kappa light chain constant region
B7: multivalent antibody 341VL36-CH1-H-CH2-CH3-341-CH1 (bispecific antibody)
heavy: EVQLVESGGGLVKPGGSLRLSCGGSGFTFNNAWMNWVRQAPGKGLEWVGRIKGKTDGGTADYAAPVKGRFTISRDYSKNTLYLQMNSLKTEDTGVYYCTTYLPYYYGSERWSGMDVWGQGTTVTVSSASTKGPSVFPLAPCSRSTSESTAALGCLVKDYFPEPVTVSWNSGALTSGVHTFPAVLQSSGLYSLSSVVTVPSSNFGTQTYTCNVDHKPSNTKVDKTVERKCCVECPPCPAPPVAGPSVFLFPPKPKDTLMISRTPEVTCVVVDVSHEDPEVQFNWYVDGVEVHNAKTKPREEQFNSTFRVVSVLTVVHQDWLNGKEYKCKVSNKGLPASIEKTISKTKGQPREPQVYTLPPSREEMTKNQVSLTCLVKGFYPSDIAVEWESNGQPENNYKTTPPMLDSDGSFFLYSKLTVDKSRWQQGNVFSCSVMHEALHNHYTQKSLSLSPGKGSQVQLQQSGPGLVKPSQTLSLTCAISGDSVSSNSATWNWIRQSPSRDLEWLGRTYYRSKWYRDYVGSVKSRIIINPDTSNNQFSLQLNSVTPEDTAIYYCTRAQWLGGDYPYYYSMDVWGQGTTVTVSSASTKGPSVFPLAPCSRSTSESTAALGCLVKDYFPEPVTVSWNSGALTSGVHTFPAVLQSSGLYSLSSVVTVPSSNFGTQTYTCNVDHKPSNTKVDKTV
light: EIVLTQSPATLSLSPGERATLSCRASQSVSSYLAWYQQKPGQAPRLLIYDASNRATGIPARFSGSGSGTDFTLTISSLEPEDFAVYYCQQRSNTFGPGTKVDIK
notes: Entry probably still carries the signal peptide; Tested as culture supernatant; not shown: human immunoglobulin kappa light chain constant region
B8: multivalent antibody 341-CH1-341VL36 (bispecific antibody)
heavy: QVQLQQSGPGLVKPSQTLSLTCAISGDSVSSNSATWNWIRQSPSRDLEWLGRTYYRSKWYRDYVGSVKSRIIINPDTSNNQFSLQLNSVTPEDTAIYYCTRAQWLGGDYPYYYSMDVWGQGTTVTVSSASTKGPSVFPLAPCSRSTSESTAALGCLVKDYFPEPVTVSWNSGALTSGVHTFPAVLQSSGLYSLSSVVTVPSSNFGTQTYTCNVDHKPSNTKVDKTVGSEVQLVESGGGLVKPGGSLRLSCGGSGFTFNNAWMNWVRQAPGKGLEWVGRIKGKTDGGTADYAAPVKGRFTISRDYSKNTLYLQMNSLKTEDTGVYYCTTYLPYYYGSERWSGMDVWGQGTTVTVSSASTKGPSVFPLAPCSRSTSESTAALGCLVKDYFPEPVTVSWNSGALTSGVHTFPAVLQSSGLYSLSSVVTVPSSNFGTQTYTCNVDHKPSNTKVDKTVERKCCVECPPCPAPPVAGPSVFLFPPKPKDTLMISRTPEVTCVVVDVSHEDPEVQFNWYVDGVEVHNAKTKPREEQFNSTFRVVSVLTVVHQDWLNGKEYKCKVSNKGLPASIEKTISKTKGQPREPQVYTLPPSREEMTKNQVSLTCLVKGFYPSDIAVEWESNGQPENNYKTTPPMLDSDGSFFLYSKLTVDKSRWQQGNVFSCSVMHEALHNHYTQKSLSLSPGK
light: EIVLTQSPATLSLSPGERATLSCRASQSVSSYLAWYQQKPGQAPRLLIYDASNRATGIPARFSGSGSGTDFTLTISSLEPEDFAVYYCQQRSNTFGPGTKVDIK
notes: Anti-CD40 site N-terminal, anti-CD28 site C-terminal; Entry probably still carries the signal peptide; Tested as culture supernatant; not shown: human immunoglobulin kappa light chain constant region

T1 sequence (P10747 19-152): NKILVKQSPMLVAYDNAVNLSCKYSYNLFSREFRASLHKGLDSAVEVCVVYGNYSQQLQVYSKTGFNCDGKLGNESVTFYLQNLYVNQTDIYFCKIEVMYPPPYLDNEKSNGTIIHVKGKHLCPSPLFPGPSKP

This assay addresses T1, human-CD28-Fc fusion protein (human, UniProt P10747 19-152).
T1 construct: also called Fc fusion protein of the human-CD28 extracellular domain with IgG; hECD28-Fc
The experiment in a line: ELISA, human-CD28-Fc coated at 1 µg/mL, culture supernatant, anti-human κ HRP detection. The method, then: The human-CD4O-Fc fusion protein and the human-CD28-Fc fusion protein were adjusted to give a concentration of 1 μg/mL using coating buffer (50 mM carbonate buffer, pH 9). To a well, 50 μL/well of the obtained human-CD4O-Fc fusion prostein or the obtained human-CD28-Fc fusion protein was added into the Maxisorp Plate (manufactured by Nalge Nunc International) respectively, and incubated at 4° C. overnight to be immobilized. Then, 200 μL/well of blocking reagent (SuperBlock (registered trademark) Blocking Buffer, manufactured by Pierce Protein Research) was added to the well, followed by incubation at room temperature for 30 minutes for blocking. Then, 50 μL/well of the culture supernatant comprising each antibody obtained in above Examples was added to the well followed by incubation at room temperature for 1 hour. After washing three times with Washing buffer (0.1% Tween20-TBS), Affinity Isolated Antibody HRP Conjugated Goat F(ab)₂ anti-Human κ (manufactured by EY Laboratories Inc) was diluted with assay diluent (0.1% Tween20-TBS containing Block Ace manufactured by Dainippon Sumitomo Pharma Co. Ltd. by 10%). Then, 50 μL of the obtained solution was added to each well followed by incubation at a room temperature for 1 hour. After washing three times with washing buffer, 50 μL of TMB (manufactured by Dako) coloring substrate solution was added to each well, followed by incubation in a dark room at room temperature. After developping color, 0.5 M vitriol (50 μL/well) was added to stop the reaction. The absorbance at the wavelength of 450 nm was measured with a microplate reader (SPECTRAMAX190, manufactured by Molecular Devices Inc).
On to B1, for which the binding result is “binds”.
The same measure for B2: “binds”.
The same measure for B3: “binds”; for B4: “no binding”; for B5: “binds”.
The value for B6 was “binds”.
In the case of B7, the binding result is given as “binds”.
The value for B8 was “binds”.
